{
  "source": "paper PMC10473755",
  "target": "prion-like C-terminal domain of TDP-43 (TDP-43PrLD), in droplets with poly-A RNA (UniProt Q13148)",
  "sequence (Q13148 267-414)": "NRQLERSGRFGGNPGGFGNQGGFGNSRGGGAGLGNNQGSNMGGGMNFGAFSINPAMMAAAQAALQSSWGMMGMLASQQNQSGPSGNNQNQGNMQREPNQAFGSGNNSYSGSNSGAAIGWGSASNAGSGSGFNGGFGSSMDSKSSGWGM",
  "assay": "co-sedimentation",
  "data": [
    {"substance": "α-synuclein, wild-type monomers (from UniProt P37840 1-140) (natural protein)", "values": [
      {"measurement": "percent of total αS partitioned into the droplets", "value": 8, "unit": "%"}
    ]}
  ]
}
